± gives the uncertainty stated by the source.
Test: amyloid nucleation score (Sup35N fusion, yeast selection) (log enrichment); library NNK3; higher = more nucleation; inactive = no reads after selection
In short: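 On medium lacking adenine and uracil, psi-negative yeast expressing peptides of 20 random codons fused to Sup35N were grown 7 days at 30°C after a 24-hour induction with 100 μM copper sulfate. Illumina sequencing of input and output plasmid inserts gave the reads, and sequences under 100 input reads were excluded. The nucleation score is the DiMSum log enrichment of output over input reads, centred on the mode score of non-aggregating sequences.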

Substance | amyloid nucleation score
RSYTDMCP | inactive
RTFRSFSQVYRPILRRGHSG | inactive
RTIYTLPSCEIEGDLWHLSG | inactive
RTLFYFLDDSQFVLV | inactive
RTLNYFSHVCQSSINWSSLV | 0.743 ± 0.16
RTLQVWHDWVVG | -0.555 ± 0.69
RTNDHVNW | inactive
RTRFQITCQEETTCPRFS | 0.92 ± 0.16
RTSLGSCKYHLVFFYRVLVW | inactive
RTSLNGTLGVLSRYGWNISE | inactive
RTSMPTTHGGLVLQSWDYRP | inactive
RTTVVYTLNLSGTNRRPCYN | 1.66 ± 0.084
RVFIDRDRP | inactive
RVITCWSQQCWHDRCLVCGK | inactive
RVKYL | inactive
RVLSCECKVGRKWICTELFV | inactive
RVLVWTFYEKAKNCAFCRGV | inactive
RVLYGTICIFVGYFLVMSCV | -0.21 ± 0.57
RVLYPVKVYRNDKMADWNN | inactive
RVMRSDDVWMCSSLHDFCAV | inactive
RVNNGT | inactive
RVPGVCVYLCNEVACSTLCI | 2.03 ± 0.079
RVPYFYFPPLR | inactive
RVREPSVAVRECWCYLGDAV | inactive

Substance | amyloid nucleation score
RVVGRRSNYFVFLFRTLGRN | inactive
RVYHLIWFFYYLYNGHFISS | inactive
RWLPMSNVAGGQKRKMLASL | inactive
RWNLDWSSLSAGHGKYSQEY | inactive
RWNSISI | inactive
RWSVCSCYSWERSGSRSQ | inactive
RYADHAYLVPKFGQTEQENV | inactive
RYDCRQPIAEFVVWAV | inactive
RYDLCLDLALLRGNWWDLYL | inactive
RYDMRVNVVFTCPWRDSNND | 0.894 ± 0.28
RYDYFLFLIFSFLCTVDPMV | -0.211 ± 0.31
RYGFDRIPIFLLNVAMNVYP | 0.535 ± 0.58
RYIFNQANSMVQYRFVYDVR | 1.72 ± 0.069
RYLDCFVVVLVSDFMLRYVS | inactive
RYLIVVFASC | inactive
RYLWVLNRIGPVWCSGFRVW | inactive
RYMFWQWRGEL | 0.958 ± 0.17
RYNGSTTGSRLYMLLSMSLN | inactive
RYNLSFFLYFSQANNHQNLF | inactive
RYRIPTSFL | inactive
RYRLKM | inactive
RYRLSMELT | inactive
RYSGANVDNYVN | inactive
RYSLCCYGGFFRYSRDFMRR | 1.14 ± 0.14

Substance | amyloid nucleation score
RYTFVGT | -0.408 ± 0.68
RYTIGFHLSMDSAYSISFYP | inactive
RYYLFLVPSGVWGYVVLRDS | 0.656 ± 0.21
SACVGFMGPRNIRL | inactive
SADITSTLGRYAFYF | inactive
SAFCCRSMSGVEFLRAFVSK | inactive
SAGDTDRRPVFH | -0.058 ± 1
SAGTLGGYDFVYVAVDSLHR | inactive
SALEKVDGATSIEVLPTNRR | inactive
SALKGLTRELSVRVY | inactive
SALLQAIF | inactive
SAMCICLICALGVCPTMDGA | 2.5 ± 0.073
SARGCTNSSSNGLGRGHQTG | inactive
SAWLATGTYEVKAQRG | inactive
SAYKKASVWGLRLQSSRS | inactive
SAYVYTD | -0.156 ± 0.66
SCEDLWNNMIAWMFATSRR | 1.26 ± 0.1
SCILHYSDYATWLGRYVKVI | inactive
SCLRHPSTSSQNKSCLPDIP | inactive
SCMVNMSPVGWDSAGGEQGV | inactive
SCNRSSSV | inactive
SCPLR | inactive
SCRDDLLVMSKVTLITMT | inactive
SCSLCWPIHRDFHMCTSSVC | inactive

Substance | amyloid nucleation score
SCSSCYIELKWLYLRILLDC | inactive
SCTLQNFRGLKNSFYGYYAT | inactive
SCTYVSFVSSVRVTA | inactive
SCVMSWIFWNFVWCYSVRCV | inactive
SCVWFSL | inactive
SCYSLSSESSCSVGMCSTLG | inactive
SDAVSIWGQKSNISSICNDS | inactive
SDFFTLSS | inactive
SDGDVMFLVKIEAGAFSGGM | inactive
SDIYWNGGLMYWICSMSVFI | 2.84 ± 0.078
SDNGEIMILYRLRAVGDFE | inactive
SDPVPVMDIALYLVNPQLPS | inactive
SDRFHVAHNNFLMRGKGFRT | inactive
SDYGSFLEFH | -0.27 ± 0.79
SEFGPIEATSAHMFESPFKG | inactive
SEHFRN | inactive
SELFSEMREESKGRFNIWEV | inactive
SEQFSPCLVGQLRMDYSWI | inactive
SFAKHHDMK | inactive
SFCRRNISKVFYNFNNCATA | inactive
SFCWASKSVHRSRG | inactive
SFDNSWVVGAIELNDFDSWH | inactive
SFERGMSENLFIVGPGEFVG | inactive
SFEYHNWNDM | 0.361 ± 0.18

Substance | amyloid nucleation score
SFFTKADAGMPDLRSFMESC | inactive
SFGFALLGVVMRITAVRYPY | inactive
SFGTLQKVK | inactive
SFHSPYL | inactive
SFLGCFHGDY | inactive
SFLIGVV | inactive
SFLLFYVLRYP | inactive
SFLSWMVFANFKRVHPGWVP | inactive
SFLVSSINNVQGFFSVNGYV | 0.085 ± 0.26
SFLWKIMISCYMMIVFCCVS | inactive
SFNSRIIKRDDCFMDLIFWT | 1.07 ± 0.12
SFQAWVYFVSRLFLECFSSR | inactive
SFQSLTM | inactive
SFRSSSYEDNCLLVVDNVRT | inactive
SFSCYCTLLGLSVHYVNPTV | 1.82 ± 0.1
SFSLNRRWFNIGS | inactive
SFSMIRE | inactive
SFSMKKGQHQLIS | inactive
SFWIV | inactive
SFYGSIQGQNLLTLLNMKTR | inactive
SGASYVQS | inactive
SGCCLDSLYLTIRLDCLRWR | inactive
SGCYNYFCGFLLKYSMYVSL | inactive
SGFVSWN | inactive

Substance | amyloid nucleation score
SGGKWFIFRCT | inactive
SGGTEKRSKRAGLLLFRTEE | inactive
SGGVFCYQGSPGVVY | inactive
SGLDRWDAEVVSILWVKLTV | 1.44 ± 0.094
SGMLKLSWVVW | 0.667 ± 0.22
SGNDNFYVDCNWLNIIVNET | 2.79 ± 0.078
SGRCRSGRQAIRCCILLNVL | inactive
SGSDILISYLLFCYNACLTF | inactive
SGSKR | inactive
SGSRLGHCSSLTMKSSLSVD | 1.06 ± 0.17
SGVMNWKT | inactive
SGWIYMERIAS | inactive
SGYCYGFVMNDGHSSVRGDE | -0.215 ± 0.74
SHIDAIAQGNTVSSCGYV | inactive
SHKNGFFSQETR | inactive
SHKPLDRYLIEWLGLQELLT | inactive
SHLPCLFCYV | inactive
SHLSYYTFKWSSEATRAVPM | 1.82 ± 0.11
SHNVSTWRMICSWLVRPFIR | inactive
SHSMM | -0.218 ± 0.66
SHVSQMWSGYAGNKEEPTAW | 0.928 ± 0.19
SHWYIYSYSVDPCAGHAAVW | inactive
SICCGDSVVFTVSLPVAGSF | inactive
SIDHVLWYNIGRVGSCWSLR | -0.188 ± 0.27

Substance | amyloid nucleation score
SIGCSSGFGRCLDLG | inactive
SIGELPT | inactive
SIIDKCATTLTDVSGNQLGV | inactive
SIIDKE | -0.605 ± 0.98
SIKSLTIDSCLTS | 0.809 ± 0.2
SILLDMSDQFPALGFSLFII | inactive
SIMFGNLSMAKVKYMNFL | 0.862 ± 0.12
SINRTKQCLEVNFHLDDCKA | inactive
SISLITFCRMCDAWLWRFGV | inactive
SITSAPSLYMSGFTKVCSGE | inactive
SIYKE | inactive
SKAMLTVA | inactive
SKEAVLRVNPVVTFFSGSTR | inactive
SKFIRRT | inactive
SKHSVAGQTKC | inactive
SKKYFVHFILVNNFGVGY | inactive
SKMLIWSYLHGGNRCDLSDW | inactive
SKSITEADNPRNILNASGVE | inactive
